Numbered stars: 1 amine (or outer) side, 2 acyl side, 3 side chain; on linkers, the order of the positions; unused ones are H or OH. Bridge positions count the residues as written; N and C are the ends. Square brackets hold non-standard residues; d marks the D form. Ends that are not written are not given here. * marks the point of attachment. (3-Chloro-Ph)G = 3-chlorophenylglycine, O=C([C@@H](N[*:1])c1cccc(Cl)c1)[*:2]; Phe(2,5-diF) = O=C([C@H](Cc1cc(F)ccc1F)N[*:1])[*:2]; Pro(cis-4-CF3) = O=C(O)[C@@H]1C[C@H](C(F)(F)F)CN1; Pro(4-spirocPr) = O=C(O)[C@@H]1CC2(CC2)CN1; C18 diacid = O=C(O)CCCCCCCCCCCCCCCCC(=O)*; Oic = O=C(O)[C@@H]1C[C@@H]2CCCC[C@@H]2N1; tBuAla = CC(C)(C)C[C@H](N)C(=O)O; Aad = N[C@@H](CCCC(=O)O)C(=O)O; Pen = CC(C)(S)[C@H](N)C(=O)O; PEG3 = NCCOCCOCCOCCC(=O)O; Orn = NCCC[C@H](N)C(=O)O; Sar = CNCC(=O)O
B1: ((2S)-2-(morpholin-4-yl)propanoic acid)-IC+SRSLP-(Oic)-I-(Pen)+IPD-OH (peptide)
peptide: {(2S)‑2‑(morpholin-4-yl)propanoic acid}-ICSRSLP[Oic]I[Pen]IPD-OH
modifications: disulfide 2-10
B2: AIC+SRSLPP-((3-Chloro-Ph)G)-C+IPD-OH (peptide)
peptide: AICSRSLPP[(3-Chloro-Ph)G]CIPD-OH
modifications: disulfide 3-11; N-terminus assumed
SMILES: CC[C@H](C)[C@H](NC(=O)[C@H](C)N)C(=O)N[C@H]1CSSC[C@@H](C(=O)N[C@H](C(=O)N2CCC[C@H]2C(=O)N[C@@H](CC(=O)O)C(=O)O)[C@@H](C)CC)NC(=O)[C@H](c2cccc(Cl)c2)NC(=O)[C@@H]2CCCN2C(=O)[C@@H]2CCCN2C(=O)[C@H](CC(C)C)NC(=O)[C@H](CO)NC(=O)[C@H](CCCNC(=N)N)NC(=O)[C@H](CO)NC1=O
B3: (ODD)-AIC+SRSLP-(Oic)-I-(Pen)+IPD-(Orn)-OH (peptide)
peptide: {C18 diacid}-AICSRSLP[Oic]I[Pen]IPD[Orn]-OH
modifications: disulfide 3-11
SMILES: CC[C@H](C)[C@H](NC(=O)[C@H](C)NC(=O)CCCCCCCCCCCCCCCCC(=O)O)C(=O)N[C@H]1CSSC(C)(C)[C@@H](C(=O)N[C@H](C(=O)N2CCC[C@H]2C(=O)N[C@@H](CC(=O)O)C(=O)N[C@@H](CCCN)C(=O)O)[C@@H](C)CC)NC(=O)[C@H]([C@@H](C)CC)NC(=O)[C@@H]2C[C@@H]3CCCC[C@@H]3N2C(=O)[C@@H]2CCCN2C(=O)[C@H](CC(C)C)NC(=O)[C@H](CO)NC(=O)[C@H](CCCNC(=N)N)NC(=O)[C@H](CO)NC1=O
B4: ((N-Me)G)-IC+SRS-((tBu)A)-PPI-(Pen)+IP-(PEG2(13 atoms))-OH (peptide)
peptide: [Sar]ICSRS[tBuAla]PPI[Pen]IP[PEG3]-OH
modifications: disulfide 3-11; N-terminus assumed
SMILES: CC[C@H](C)[C@H](NC(=O)CNC)C(=O)N[C@H]1CSSC(C)(C)[C@@H](C(=O)N[C@H](C(=O)N2CCC[C@H]2C(=O)NCCOCCOCCOCCC(=O)O)[C@@H](C)CC)NC(=O)[C@H]([C@@H](C)CC)NC(=O)[C@@H]2CCCN2C(=O)[C@@H]2CCCN2C(=O)[C@H](CC(C)(C)C)NC(=O)[C@H](CO)NC(=O)[C@H](CCCNC(=N)N)NC(=O)[C@H](CO)NC1=O
B5: ((N-Me)G)-IC+SRSLP-(Oic)-I-(Pen)+IP-(AAD)-OH (peptide)
peptide: [Sar]ICSRSLP[Oic]I[Pen]IP[Aad]-OH
modifications: disulfide 3-11; N-terminus assumed
SMILES: CC[C@H](C)[C@H](NC(=O)CNC)C(=O)N[C@H]1CSSC(C)(C)[C@@H](C(=O)N[C@H](C(=O)N2CCC[C@H]2C(=O)N[C@@H](CCCC(=O)O)C(=O)O)[C@@H](C)CC)NC(=O)[C@H]([C@@H](C)CC)NC(=O)[C@@H]2C[C@@H]3CCCC[C@@H]3N2C(=O)[C@@H]2CCCN2C(=O)[C@H](CC(C)C)NC(=O)[C@H](CO)NC(=O)[C@H](CCCNC(=N)N)NC(=O)[C@H](CO)NC1=O
B6: AIC+SRSLP-((4-CF3)P)-IC+IPD-OH (peptide)
peptide: AICSRSLP[Pro(cis-4-CF3)]ICIPD-OH
modifications: disulfide 3-11; N-terminus assumed
SMILES: CC[C@H](C)[C@H](NC(=O)[C@H](C)N)C(=O)N[C@H]1CSSC[C@@H](C(=O)N[C@H](C(=O)N2CCC[C@H]2C(=O)N[C@@H](CC(=O)O)C(=O)O)[C@@H](C)CC)NC(=O)[C@H]([C@@H](C)CC)NC(=O)[C@@H]2C[C@H](C(F)(F)F)CN2C(=O)[C@@H]2CCCN2C(=O)[C@H](CC(C)C)NC(=O)[C@H](CO)NC(=O)[C@H](CCCNC(=N)N)NC(=O)[C@H](CO)NC1=O
B7: AIC+SRS-((tBu)A)-P-((4-CF3)P)-I-(Pen)+IPD-OH (peptide)
peptide: AICSRS[tBuAla]P[Pro(cis-4-CF3)]I[Pen]IPD-OH
modifications: disulfide 3-11; N-terminus assumed
SMILES: CC[C@H](C)[C@H](NC(=O)[C@H](C)N)C(=O)N[C@H]1CSSC(C)(C)[C@@H](C(=O)N[C@H](C(=O)N2CCC[C@H]2C(=O)N[C@@H](CC(=O)O)C(=O)O)[C@@H](C)CC)NC(=O)[C@H]([C@@H](C)CC)NC(=O)[C@@H]2C[C@H](C(F)(F)F)CN2C(=O)[C@@H]2CCCN2C(=O)[C@H](CC(C)(C)C)NC(=O)[C@H](CO)NC(=O)[C@H](CCCNC(=N)N)NC(=O)[C@H](CO)NC1=O
B8: ((N-Me)G)-FC+TRK-((tBu)A)-(Pen)+YPD-OH (peptide)
peptide: [Sar]FCTRK[tBuAla][Pen]YPD-OH
modifications: disulfide 3-8; N-terminus assumed
SMILES: CNCC(=O)N[C@@H](Cc1ccccc1)C(=O)N[C@H]1CSSC(C)(C)[C@@H](C(=O)N[C@@H](Cc2ccc(O)cc2)C(=O)N2CCC[C@H]2C(=O)N[C@@H](CC(=O)O)C(=O)O)NC(=O)[C@H](CC(C)(C)C)NC(=O)[C@H](CCCCN)NC(=O)[C@H](CCCNC(=N)N)NC(=O)[C@H]([C@@H](C)O)NC1=O
B9: ((N-Me)G)-IC+SRS-((2,5-Difluoro)F)-PPI-(Pen)+IPe-OH (peptide)
peptide: [Sar]ICSRS[Phe(2,5-diF)]PPI[Pen]IP[dE]-OH
modifications: disulfide 3-11; N-terminus assumed
SMILES: CC[C@H](C)[C@H](NC(=O)CNC)C(=O)N[C@H]1CSSC(C)(C)[C@@H](C(=O)N[C@H](C(=O)N2CCC[C@H]2C(=O)N[C@H](CCC(=O)O)C(=O)O)[C@@H](C)CC)NC(=O)[C@H]([C@@H](C)CC)NC(=O)[C@@H]2CCCN2C(=O)[C@@H]2CCCN2C(=O)[C@H](Cc2cc(F)ccc2F)NC(=O)[C@H](CO)NC(=O)[C@H](CCCNC(=N)N)NC(=O)[C@H](CO)NC1=O
B10: ((N-Me)G)-IC+SRS-((2,5-Difluoro)F)-PPI-(Pen)+IPDd-OH (peptide)
peptide: [Sar]ICSRS[Phe(2,5-diF)]PPI[Pen]IPD[dD]-OH
modifications: disulfide 3-11; N-terminus assumed
SMILES: CC[C@H](C)[C@H](NC(=O)CNC)C(=O)N[C@H]1CSSC(C)(C)[C@@H](C(=O)N[C@H](C(=O)N2CCC[C@H]2C(=O)N[C@@H](CC(=O)O)C(=O)N[C@H](CC(=O)O)C(=O)O)[C@@H](C)CC)NC(=O)[C@H]([C@@H](C)CC)NC(=O)[C@@H]2CCCN2C(=O)[C@@H]2CCCN2C(=O)[C@H](Cc2cc(F)ccc2F)NC(=O)[C@H](CO)NC(=O)[C@H](CCCNC(=N)N)NC(=O)[C@H](CO)NC1=O
B11: aIC+SRS-((tBu)A)-P-((6S)-5-Azaspiro[2.4]heptane-6-carboxylic acid)-I-(Pen)+IPD-OH (peptide)
peptide: [dA]ICSRS[tBuAla]P[Pro(4-spirocPr)]I[Pen]IPD-OH
modifications: disulfide 3-11; N-terminus assumed
SMILES: CC[C@H](C)[C@H](NC(=O)[C@@H](C)N)C(=O)N[C@H]1CSSC(C)(C)[C@@H](C(=O)N[C@H](C(=O)N2CCC[C@H]2C(=O)N[C@@H](CC(=O)O)C(=O)O)[C@@H](C)CC)NC(=O)[C@H]([C@@H](C)CC)NC(=O)[C@@H]2CC3(CC3)CN2C(=O)[C@@H]2CCCN2C(=O)[C@H](CC(C)(C)C)NC(=O)[C@H](CO)NC(=O)[C@H](CCCNC(=N)N)NC(=O)[C@H](CO)NC1=O

These binders were tested against Recombinant human MASP2 enzyme (fragment corresponding to amino acids 297-686, C-terminal His Tag) (human, UniProt O00187 297-686) (assay: cell-based or functional assay).
Sequence of Recombinant human MASP2 enzyme (fragment corresponding to amino acids 297-686, C-terminal His Tag) (O00187 other isoform, or with tags, fused parts or gaps limits assumed): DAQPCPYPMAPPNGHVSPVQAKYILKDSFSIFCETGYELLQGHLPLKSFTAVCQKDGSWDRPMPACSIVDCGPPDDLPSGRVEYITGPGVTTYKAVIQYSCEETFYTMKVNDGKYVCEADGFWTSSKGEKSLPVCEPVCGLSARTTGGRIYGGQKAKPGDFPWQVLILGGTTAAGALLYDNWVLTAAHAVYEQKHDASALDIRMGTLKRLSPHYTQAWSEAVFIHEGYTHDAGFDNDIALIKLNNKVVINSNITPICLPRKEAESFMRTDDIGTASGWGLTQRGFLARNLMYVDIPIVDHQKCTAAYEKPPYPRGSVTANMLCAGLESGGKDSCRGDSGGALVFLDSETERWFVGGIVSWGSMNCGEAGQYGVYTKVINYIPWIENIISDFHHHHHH

| Binder | human MASP2 IC50 [nM] |
| --- | --- |
| B1 | 170 |
| B2 | 1000 |
| B3 | 1000 |
| B4 | 46 |
| B5 | 150 |
| B6 | 1000 |
| B7 | 510 |
| B8 | 1000 |
| B9 | 64 |
| B10 | 20 |
| B11 | 22 |

The binders below were run against T1, Recombinant human MASP1 enzyme (fragment corresponding to amino acids 297-699, C-terminal His Tag) (human, UniProt P48740 297-699) (assay: cell-based or functional assay).
T1 sequence: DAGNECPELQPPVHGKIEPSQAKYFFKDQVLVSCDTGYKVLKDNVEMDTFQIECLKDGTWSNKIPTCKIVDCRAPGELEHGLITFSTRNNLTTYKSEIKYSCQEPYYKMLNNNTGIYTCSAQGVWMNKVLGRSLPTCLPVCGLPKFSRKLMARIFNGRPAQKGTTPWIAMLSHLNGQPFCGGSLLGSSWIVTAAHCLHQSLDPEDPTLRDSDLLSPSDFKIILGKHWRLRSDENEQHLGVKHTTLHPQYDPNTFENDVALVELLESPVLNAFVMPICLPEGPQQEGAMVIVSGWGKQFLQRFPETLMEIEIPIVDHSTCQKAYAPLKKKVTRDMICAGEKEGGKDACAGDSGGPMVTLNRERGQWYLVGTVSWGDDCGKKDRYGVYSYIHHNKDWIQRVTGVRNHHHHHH

| Binder | human MASP1 IC50 [nM] |
| --- | --- |
| B1 | 70 |
| B2 | 526 |
| B3 | 1000 |
| B4 | 5.3 |
| B5 | 7 |
| B6 | 7.5 |
| B7 | 3.1 |
| B8 | 1000 |
| B9 | 21 |
| B10 | 17 |
| B11 | 4.4 |

— patent publication US20210246166A1 (Bayer, published 2021)
